In the DeepSol protein solubility set:

Assay: soluble on expression in E. coli; label from the status in PepcDB or PDB records

**Q.** For “IPIPSALEARLDAYVALLQQWQAKTNLVAPSTLPQLWTRHVADSLQLVSLMPHARRWLDFGSGGGFPGVVLACAMADVGGHVTLVERIAKKAAFLREALRVAGAPGTVILADIGDNVDRFPQALDCITARAVAPLHQLIGFAEPLMTPGTTKALFLKGQDVDAELTETTKYWKFQPKLHASVTGGQGWIVEIDHIER”, which “soluble on expression in E. coli” value is on record?
**A.** Its value is “not soluble”.

**Q.** For “MSWMDKFDPKLQTMVKEVDAQIAPQLAKIDARILENQNKVLTSFQNHHVAESYLTGSTGYGHNDEGRDVLEAIYADVLGGEDALVRPQFVSGTHAIGVALLGLVRPGDDIVYITGKPYDTLQEVLGLAGNGIGAPQEYGIGVDYVDLLPNGAVDDDAVKARLNDKTKVVAIQRSRGYATRDSFTVDQIAAMIKVVRSVLPNVWIFVDNAYGEVSETKEPLEVGADVMAGSLFKNAGGGMAKTGGYIVGKKDLIDRISYRFTVPGLGGAEGATVGALADMYQGFFISPQTTGNAIKGAIFEAALFAKLGLDVSPAWDAPRTDLIQTVNFGNADDMVKFAKAVQANSPVDSFVTPIPEKMAGYEDQVIMAGGTFVAGSTIEFSGDGPLRPPYTLYLQGGLTYAHIKLATMGAAQSTFFDNLEHHHHHH”, which “soluble on expression in E. coli” value is on record?
**A.** Its value is “not soluble”.

**Q.** With “MNSTFIVNFVGKATPATIKQLAAVTHENGGKWLISKVNFIEDSVAAVIKIELPADNASTVKQAFQTYPSLLVEITDADPHVHKSDAVYKVRLDANDRAGIVNEITHLLDGQGISILDMDCQRVFIAGGGGISSSLFTANVAMRLPVNIEIDDVINELEALSEDTRVTLEA” as the sequence, how does the “soluble on expression in E. coli” value read?
**A.** Its value is “not soluble”.

**Q.** Which “soluble on expression in E. coli” value does the source give for “SEADASVDMFSKVLEHQLLQTTKLVEEHLDSEIQKLDQMDEDELERLKEKRLQALRKAQQQKQEWLSKGHGEYREIPSERDFFQEVKESENVVCHFYRDSTFRCKILDRHLAILSKKHLETKFLKLNVEKAPFLCERLHIKVIPTLALLKDGKTQDYVVGFTDLGNTDDFTTETLEWRLGSSDILNYSGNLMEPPFQNQKKFGTNFTKLEKKTIRGKKYDSDSDDD” here?
**A.** Its value is “soluble”.

**Q.** For “MPGTTDQIDVNVEVKEKPTGAVMFGAGYSNMEGLILSGSVAQDNIFGTGKFVNLMVNTGSVNKTYSLSYTDPYFTKDGVTAGLDLYKRVLNTRTLSSVMNFNTDTLGAGLRFGIPINENDSIMGGLGAEQTTIDLGPDSPQRNIDFVNKFGRTTINIPATLSWRRDGRDSAIWTTSGTTQRVFAEVGLPGGDLTYYKLSYDLRWYFPITEIFTLMLNGELGYGDGYSGKELPFFKNFFAGGNTSVRGYNISSLGPRDATNRTLGGNKRAVGNIEVLFPMPGMRNDRTVRLSAFLDGGTVWGPGGVRPDQEGLRYSAGIAVTWISPMGPLKISVAQPLNSQPGDNIQRFQFQFGQQFLEHHHHHH”, which “soluble on expression in E. coli” value is on record?
**A.** Its value is “soluble”.

**Q.** For “MGSDKIHHHHHHMRLKVSFQAMESTVPLNYNYFLSSFIYKRLASQNENFARFLHEKGYGKRFKFFTFSQLFFENSRVSGERIFIFPGKGWWYISSPVVEFVRYMFSSLSEDPVIRVGKTEFIVKSIDIENSLPDQSEYHFVMLSPLVVSVPEENNGKLYHRYLHPGEEEFYEVFRKNLMKKYRAFYGKDPEGTVEVIPDWDYIKSRHRITKRIKLKNAFVRAVVFPFKIRGEKKLVEIGYEAGFGEKNSMGFGMVALKKYER”, which “soluble on expression in E. coli” value is on record?
**A.** Its value is “not soluble”.

**Q.** With “MTYKGYLIDLDGTIYKGKDRIPAGEDFVKRLQERQLPYILVTNNTTRTPEMVQEMLATSFNIKTPLETIYTATLATIDYMNDMKRGKTAYVIGETGLKKAVAEAGYREDSENPAYVVVGLDTNLTYEKLTLATLAIQKGAVFIGTNPDLNIPTERGLLPGAGAILFLLEKATRVKPIIIGKPEAVIMNKALDRLGVKRHEAIMVGDNYLTDITAGIKNDIATLLVTTGFTKPEEVPALPIQPDFVLSSLAEWDFDER” as the sequence, how does the “soluble on expression in E. coli” value read?
**A.** Its value is “soluble”.

**Q.** With “MAHHHHHHMGTLEAQTQGPGSMSGDRDDPRYPYPKDDAELRRRLTPMQYEVTQHAATEPPFTGEYTDTEDAGIYHCVVCGTALFESGAKYHSGCGWPSYFKPIDGEVIDEKMDYTHGMTRVEVRCNQCGAHLGHVFEDGPRDKTGLRYCINSAALNFEAKPERK” as the sequence, how does the “soluble on expression in E. coli” value read?
**A.** Its value is “soluble”.

**Q.** For “MWDVKDIEQLSFARGLAIDETNDHQYKLTYQNLLPQSEDSQASGKPEFVNVTSHGKTILEAVSDVSIKDPPVYSDHLKVILLGEKLMRNQNVDQVLNHFIRDDELRRSSYLMAARGNAADVFTKGNPNQQQPMPSEKLIDLTTHSGYNGKIMIPLRIGRASVYSQNGYSYLIQAVKNEKGKAKYDGAGIIKRGSNKLVGFLSADETQTLSWVMGTIQGGVMPTTDKGHPITFEIKKSKTKIKPVIENGKPVFHISVKTKGILTEDQNPNENSFSKSYLHRLENIFEKKLERDVKQVMDKLQHEYKTDPVFLSDHIRIQHPDYWNKVKGHWDEIFSETDFKYDISFKIINFGTVGKLEHHHHHH”, which “soluble on expression in E. coli” value is on record?
**A.** Its value is “soluble”.

**Q.** Which “soluble on expression in E. coli” value does the source give for “MSSDVAGVKKSSSSSSSTSSPFMFSMLLMFSRSISSTIKISANRILLCCTSSFSTTSGFFKIESNRLTSRSSSGIFSRTACNRSCGNCFSISAVLSFCVAPLCCKSTGRFSSAIYLLIFRSTR” here?
**A.** The value was “soluble”.

**Q.** For “MHHHHHHSSGVDLGTENLYFQSMENFNNFYILTSKELGRGKFAVVRQCISKSTGQEYAAKFLKKRRRGQDCRAEILHEIAVLELAKSCPRVINLHEVYENTSEIILILEYAAGGEIFSLCLPELAEMVSENDVIRLIKQILEGVYYLHQNNIVHLDLKPQNILLSSIYPLGDIKIVDFGMSRKIGHACELREIMGTPEYLAPEILNYDPITTATDMWNIGIIAYMLLTHTSPFVGEDNQETYLNISQVNVDYSEETFSSVSQLATDFIQSLLVKNPEKRPTAEICLSHSWLQQWDFENLFHPEETSSSSQTQDHSVRSSEDKTSKSS”, which “soluble on expression in E. coli” value is on record?
**A.** The value was “soluble”.

**Q.** Which “soluble on expression in E. coli” value does the source give for “MEKERYFQAETEGEQPETKAEEATAAITQLGQTNVPQMDPDTNIHCLTIVGQIEGHIQLPPQNKATKYEHVIPQIVAIEQNPKIEGLLVILNTVGGDVEAGLAIAEMLASLSKPTVSVVLGGGHSIGVPIAVSCNYSFITETATMTIHPIRLTGLVIGVPQTFEYLDKMQERVVRFVTKHSKISEEKFKELMFSKGNLTRDIGTNVVGPDAVRYGLIDEVGGVSQAMAKLRELIAMRKNGEGKMIQ” here?
**A.** The value was “not soluble”.

**Q.** With “VSKAVQYMAKRRIGALIVFEKETGLQDYIETGIPMNSDISQELLTNVFIPNTPLHDGAMIIQGSKIAVAASYLPLSDSVKISKSLGTRHRAAVGISEVSDAFTVVVSEETGDISVTFDGKLRRDISKDVFEELLAEHWFGAHFQKKGVNS” as the sequence, how does the “soluble on expression in E. coli” value read?
**A.** The value was “not soluble”.

**Q.** Which “soluble on expression in E. coli” value does the source give for “SRLEGWLSLPVRNNTKKFGWVKKYVIVSSKKILFYDSEQDKEQSNPYMVLDIDKLFHVRPVTQTDVYRADAKEIPRIFQILYANEGISSAKNLLLLANSTEEQQKWVSRLVKKIPKK” here?
**A.** Its value is “soluble”.

**Q.** Which “soluble on expression in E. coli” value does the source give for “EPNTPFGHTPPKGLPQDEAALDIEDAVHGALEGAGFVHYETSAFAKPAMQCRHNLNYWQFGDYLGIGAGAHGKISYPDRIERTVRRRHPNDYLALMQSQPSEAVERKTVAAEDLPFEFMMNALRLTDGVPAAMLQERTGVPSAKIMAQIETARQKGLLETDPAVFRPTEKGRLFLNDLLQCFL” here?
**A.** Its value is “not soluble”.

**Q.** With “MGSDKIHHHHHHMIDVIIVGGGPTGTMLASELRLHGVHTVVVEKRAEPTRIVRGLGLHVRSIEIMDQRGLLERFLAHGTKHPVGGYFAGIMKPWPKSLDTAHPYILGIPQPTTDRLLEERASELGADIRRGWELVGLSQDEDGVTAQLADGTQLRARYLVGCDGGRSTVRTLLGVGFPGESATTEWLLGEVKATASPETVAAVMAKVRQTQLGFAMGPLDDGVYRAVVPAAHVSEDRAAPPTLEEFAQRLREVTGTDFGVHSPRWLSRFNDATRQAERYRVGRVLLAGDAAHIHAPLGGQGLNLGIQDAFNLGWKLAAAVNGWAPEGLLDSYHTERHPVAAEVLDNTLAQSAFMSTDPRARAAHRLLLELMDFEEVNRHVMEKITAVGVRYDFGDGHALLGRRLRDVRLGQGRLYERMRHGRGVLLDRTGRLSVAGWADRVDHVADSAAEIDVPALLLRPDGHVAWIGEDQDDLLAHLPRWFGDPAA” as the sequence, how does the “soluble on expression in E. coli” value read?
**A.** The value was “not soluble”.

**Q.** With “MSAITAPLPTLDDLATLTLSIKAWGRELGFQEVGISGLDLAEHEQHLQRWLDAGYHGEMDYMAAHGSKRSHPDELVPGTLRVVSLRMDYLPGDTEMAQRLTEPEKAYVSRYALGRDYHKLIRKRLQQLAERIQQAIGPFGFRAFVDSAPVLEKAIAEQAGLGWIGKNTLVLNRKAGSFFFLGELFVDIPLPVDAPHATEHCGRCTACLDICPTAAFVGPYVLDARRCISYLTIELKTAIPEELRPLIGNRVFGCDDCQIVCPWNRFARPTDQSDFQPRHNLDNAGLAELFLWDEEKFLGSTEGSPLRRAGYERWLRNLAVGLGNAPSTIPVIEALQARRDYPSELVREHVEWALQRHGVAPL” as the sequence, how does the “soluble on expression in E. coli” value read?
**A.** The value was “not soluble”.

**Q.** Which “soluble on expression in E. coli” value does the source give for “VLFRQLEYFVAVAQERHFARAAEKCYVSQPALSSAIAKLERELNVTLINRGHSFEGLTREGERLVVWAKRILAEHAAFKAEVDAVRSGITGTLRLGTVPTASTTASLVLSAFCSAHPLAKVQVCSRLAATELYRRLREFELDAVIVHPETQDSDDVDLVPLYEEQYVLLSPADMLPPGTSTLVWRDAAQLPLALLTADMRDRQVIDAAFADHAVSAIPQVETDSVASLFAQVATGNWASIVPHTWLWAMPMSGPTGGEIRAVELVDPVLKAQIALATNALGPGSPVARALITCAQALALNEFFDTQLRGITRRR” here?
**A.** Its value is “not soluble”.

**Q.** Which “soluble on expression in E. coli” value does the source give for “MSYLDTATDLPNQTLFLEYLNIALSNARRHHAQVGVLLCQINNWSDLKRKRGDAVANAFLQEAGQKLKSNLRNGDIVSRWDKDEFIFLVSKVQDTSSLLGIAQRLMKPVLAPVTAGGRPFQPEITYGVALYPVDGEQVNDLIGHIRENLQQLLPQPTLEHHHHHH” here?
**A.** Its value is “not soluble”.

**Q.** Which “soluble on expression in E. coli” value does the source give for “GSHMATPWSGYLDDVSAKFDTGVDNLQTQVTEALDKLAAKPSDPALLAAYQSKLSEYNLYRNAQSNTAKAFKDIDAAIIQNFR” here?
**A.** Its value is “soluble”.

**Q.** For “MDFISSLIVGCAQVLCESMNMAERRGHKTDLRQAITDLETAIGDLKAIRDDLTLRIQQDGLEGRSCSNRAREWLSAVQVTETKTALLLVRFRRREQRTRMRRRYLSCFGCADYKLCKKVSAILKSIGELRERSEAIKTDGGSIQVTCREIPIKSVVGNTTMMEQVLEFLSEEEERGIIGVYGPGGVGKTTLMQSINNELITKGHQYDVLIWVQMSREFGECTIQQAVGARLGLSWDEKETGENRALKIYRALRQKRFLLLLDDVWEEIDLEKTGVPRPDRENKCKVMFTTRSIALCNNMGAEYKLRVEFLEKKHAWELFCSKVWRKDLLESSSIRRLAEIIVSKCGGLPLALITLGGAMAHRETEEEWIHASEVLTRFPAEMKGMNYVFALLKFSYDNLESDLLRSCFLYCALFPEEHSIEIEQLVEYWVGEGFLTSSHGVNTIYKGYFLIGDLKAACLLETGDEKTQVKMHNVVRSFALWMASEQGTYKELILVEPSMGHTEAPKAENWRQALVISLLDNRIQTLPEKLICPKLTTLMLQQNSSLKKIPTGFFMHMPVLRVLDLSFTSITEIPLSIKYLVELYHLSMSGTKISVLPQELGNLRKLKHLDLQRTQFLQTIPRDAICWLSKLEVLNLYYSYAGWELQSFGEDEAEELGFADLEYLENLTTLGITVLSLETLKTLFEFGALHKHIQHLHVEECNELLYFNLPSLTNHGRNLRRLSIKSCHDLEYLVTPADFENDWLPSLEVLTLHSLHNLTRVWGNSVSQDCLRNIRCINISHCNKLKNVSWVQKLPKLEVIELFDCREIEELISEHESPSVEDPTLFPSLKTLRTRDLPELNSILPSRFSFQKVETLVITNCPRVKKLPFQERRTQMNLPTVYCEEKWWKALEKDQPNEELCYLPRFVPN”, which “soluble on expression in E. coli” value is on record?
**A.** Its value is “not soluble”.

**Q.** For “MGSDKIHHHHHHMKSLGRHLVAEFYECDREVLDNVQLIEQEMKQAAYESGATIVTSTFHRFLPYGVSGVVVISESHLTIHTWPEYGYAAIDLFTCGEDVDPWKAFEHLKKALKAKRVHVVEHERGRYDEIGIPEDSPHKAAV”, which “soluble on expression in E. coli” value is on record?
**A.** The value was “soluble”.
